For one substance, aggregate-containing HEK293 biosensor cells (punctate fluorescence after 48 h) on treatment with preformed heparin-induced tauP301L fibrils results are on record in patent publication US20240116984A1, “MODIFIED PEPTIDES FOR THE INHIBITION OF ABNORMAL TAU ACCUMULATION” (University of Notre Dame du Lac, priority 2021, published 2024).

The target in this test is tau-RD (P301L/V337M)-YFP, stably expressed in HEK293 biosensor cells (UniProt P10636). In words: cell-based or functional assay.
tau-RD (P301L/V337M)-YFP, stably expressed in HEK293 biosensor cells, sequence (P10636 561-689 P618L/V654M): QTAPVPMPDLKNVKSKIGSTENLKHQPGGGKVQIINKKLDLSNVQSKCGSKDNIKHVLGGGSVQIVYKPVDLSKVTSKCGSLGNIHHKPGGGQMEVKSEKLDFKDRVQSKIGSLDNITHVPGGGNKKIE

As to “Human tauP301L (0N4R), recombinant, N-terminal His tag (from UniProt P10636 2-758)”, the aggregate-containing HEK293 biosensor cells (punctate fluorescence after 48 h) on treatment with preformed heparin-induced tauP301L fibrils was 38%.
